Laboratory results reported in patent publication US10413564B2, “Compositions and methods for combating drug-resistant cancers” (NATIONAL YANG-MING UNIVERSITY, priority 2016, dated 2019).
“Also recorded” adds a separate entry of the source. Where two headings read alike, the source gives them in different places.

Experiments:
[1] = tested on: OECM1-Ctx^R or primary HNSCC cells; assay: Sensitization to cetuximab treatment by pathway inhibitors
Protocol: (§2) A total of 5×10^4 cells per well were seeded in a 96-well plate with triplicate and incubated for 24 h and then treated with different concentrations of indicated drugs. After 24 h treatment, the medium was removed. The MTT assay solution was added to each well, and the plate was incubated for 1 h at 37° C. After incubation, the solution was carefully discarded and dimethyl sulphoxide was added to dissolve newly formed mitochondrial MTT crystals. Finally, the plate was read using a microplate reader at 540 nm. Based on the data of cell viability assay, IC50-value calculation was performed by Sigmaplot 10.0 (Systat Software Inc., San Jose, Calif.).

[2] = tested on: colorectal tumors harboring a KRAS mutation; settings: patients, FDA approval background; cited from earlier work
EGFR-ECD = EGFR-ECD (Homo sapiens, UniProt P00533); assay: Peptide in vitro binding assay with EGFR-ECD; settings: in vitro binding assay of peptides P1-P10
Protocol: The purified full-length EGFR and EGFR-ECD was incubated with peptides containing sequences of different β-sheets of LTβ.
P1-P10 (SEQ ID NOs: 2-10) were tested for in vitro binding assay.

EGFR-ICD = EGFR-ICD (Homo sapiens, UniProt P00533); assay: In vitro binding assay, EGFR-ICD and LTβ interaction; settings: LTβ β-sheet peptides
Excerpt: (§1) Since LTβ also induces EGFR-ICD phosphorylation in vitro, the applicant also investigated whether interception of EGFR-ICD and LTβ interaction could attenuate EGFR phosphorylation.

EGFR [3] = biological target: T1, EGFR (Homo sapiens, UniProt P00533); assay: EGFR dimerization in OECM1-Ctx^R; assay type: cell-based; design: examined the effect of treating the peptides containing different β-sheets of LTβ on OECM1-Ctx^R; endogenous in cells; host or cells: OECM1-CtxR (cetuximab-resistant subline of OECM1); parental OECM1 for comparison
EGF-EGFR binding = biological target: T2, EGF-EGFR binding (Homo sapiens, UniProt P00533); assay: EGF binding (flow cytometry); assay type: cell-based; settings: OECM1-Ctx^R
T2 construct: examined the effect of treating the peptides containing different β-sheets of LTβ on OECM1-Ctx^R; endogenous in cells; host or cells: OECM1-CtxR (cetuximab-resistant subline of OECM1); parental OECM1 for comparison
Protocol: To analyze EGF binding, the cells were resuspended, incubated in a PE-conjugated anti-EGF antibody and evaluated using a Cytomics FC 500 instrument (Beckman-Coulter Inc., Fullerton, Calif.). The EGF-bound populations were defined compared with the IgG control group.

OECM1-Ctx^R cells [4] = assay: Clonogenecity assay, sensitization of OECM1-Ctx^R to cetuximab by peptides; assay type: cell-based, human; settings: OECM1-Ctx^R / cetuximab-resistant cells
Protocol: The colonies were stained with crystal violet and counted if the size was great than 0.5 mm.
5,000 cells/well were seeded into 24-well plates. After 10 days of culturing, cells were washed by cold PBS twice and fixed by 4% paraformaldehyde for 1 hour. Cells then were stained by 0.005% crystal violet at 4° C. overnight. Colonies with a diameter larger than 0.5 mm were counted.

EGFR [5] = biological target: T1, EGFR; assay: In vitro kinase assay of EGFR phosphorylation; assay type: biochemical; design: Since LTβ also induces EGFR-ICD phosphorylation in vitro
Excerpt: as §1

EGFR [6] = biological target: T1, EGFR; assay: EGFR Y1068 phosphorylation in OECM1-Ctx^R treated with LTβ β-sheet peptides; assay type: cell-based; design: examined the effect of treating the peptides containing different β-sheets of LTβ on OECM1-Ctx^R; endogenous in cells; host or cells: OECM1-CtxR (cetuximab-resistant subline of OECM1); parental OECM1 for comparison
FaDu-Ctx^R cells = assay: Growth inhibition of the cetuximab-resistant subline FaDu-Ctx^R; assay type: cell-based, human
Protocol: A cetuximab-resistant HNSCC subline (named FaDu-Ctx^R) was established by in vivo selection. 1×10^5 wild-type FaDu cells per mouse were inoculated into the subcutaneous area of Balb/c nude mice (n=4). Two mice were treated with PBS and two were treated with cetuxmab once a week. […] After 10 weeks, the xenograpfted tumor was harvested for primary culture. […] The resistance of FaDu-Cxt^R was confirmed in vivo and in vitro. Subsequently, these two sublines were inoculated into nude mice again and treated with cetuximab.
After 24 h treatment, the medium was removed.

NF-κB = NF-κB luciferase reporter assay; assay type: cell-based, human; settings: cetuximab-resistant cells
Excerpt: Activation of NF-κB in cetuximab-resistant cells was evident by an increased expression of nuclear p65 and p52 proteins and an enhanced NF-κB activity. Knockdown of LTB reduced nuclear p65 and p52, and suppression of LTB by either shRNA or a LTβ neutralizing antibody reduced NF-κB reporter activity.
The reporter constructs (PGL4.2-LTB-WT/PGL4.2-LTB-MUT/pGL4.23 promoter) were co-transfected into HEK-293T, FaDu or OECM1/OECM1-Ctx^R cells with different expression/control vector(s) as indicated in each experiment. A plasmid expressing the bacterial β-galactosidase gene (pCMV-βgal) was co-transfected in each experiment as an internal control for transfection efficiency. Cells were harvested after 48 hours of transfection and luciferase activities were assayed. The relative promoter activities were expressed as the fold-change in luciferase activity after normalization to β-galactosidase activity.

OECM1-Ctx^R cells [7] = assay: Growth inhibition of the cetuximab-resistant subline OECM1-Ctx^R; assay type: cell-based, human
Protocol: as §2

Molecule: CC(C)C[C@H](NC(=O)[C@H](Cc1ccccc1)NC(=O)c1cnccn1)B(O)O [bortezomib]
- sensitization to cetuximab treatment by inhibition of NF-κB activity [1]: sensitized

Molecule: panitumumab
- effect in colorectal tumors harboring a KRAS mutation [2]: little or no effect

Molecule: WYTSVGFGGLVQLR (beta-sheet of LTbeta) [P8]
- interaction with EGFR-ECD (EGFR-ECD): interact
- interaction in the in vitro binding assay (EGFR-ICD context) (EGFR-ICD): interacted with LTβ

Molecule: ERVYVNISH (beta-sheet of LTbeta) [P9]
- EGFR dimerization (EGFR [3]): inhibits
- interaction with EGFR-ECD (EGFR-ECD): interact
- interaction in the in vitro binding assay (EGFR-ICD context) (EGFR-ICD): interacted with LTβ
- EGF-EGFR binding (EGF-EGFR binding): reduced
- sensitization to cetuximab treatment by peptide (OECM1-Ctx^R cells [4]; listed as 9th β-sheet): capable for sensitizing; also recorded: sensitized
- EGFR phosphorylation, in vitro kinase assay (EGFR [5]): suppresses EGFR phosphorylation most significantly
- EGFR Y1068 phosphorylation (EGFR [6]; listed as 9th β-sheet): suppressed; also recorded: more prominent effect

Molecule: QDGLYYLYCLVGYR (beta-sheet of LTbeta) [P5]
- interaction with EGFR-ECD (EGFR-ECD): interact
- interaction in the in vitro binding assay (EGFR-ICD context) (EGFR-ICD): interacted with LTβ
- sensitization to cetuximab treatment by peptide (OECM1-Ctx^R cells [4]; listed as 5th β-sheet): capable for sensitizing; also recorded: sensitized
- EGFR phosphorylation, in vitro kinase assay (EGFR [5]): suppresses EGFR phosphorylation most significantly
- EGFR Y1068 phosphorylation (EGFR [6]): suppressed

Molecule: CCGGCGAGAGGGTGTACGTCAACATCTCGAGATGTTGACGTACACCCTCTCGTTTTT G (CCGGCGAGAGGGTGTACGTCAACATCTCGAGATGTTGACGTACACCCTCTCGTTTTTG; expressed or natural sequence) [shRNA]
- cetuximab resistance after knockdown of LTβ (FaDu-Ctx^R cells): reverses cetuximab resistance
- NF-κB reporter activity (NF-κB): reduced
- cetuximab resistance after knockdown of LTβ (OECM1-Ctx^R cells [7]): reverses cetuximab resistance
